Measurements as given in patent US20140199327A1, “METHODS OF PROMOTING DIFFERENTIATION” (Genentech, Inc., priority 2011, published 2014).

Key:
[1] = target: T1, USP37-Flag (human USP37 with C-terminal Flag epitope) (human, UniProt Q86T82 1-979, limits assumed); test: Flag immunoprecipitation of DUBs from 293T cells cotransfected with ID2, MG-132 treated (FIG. 2B)
T1 sequence (looked up): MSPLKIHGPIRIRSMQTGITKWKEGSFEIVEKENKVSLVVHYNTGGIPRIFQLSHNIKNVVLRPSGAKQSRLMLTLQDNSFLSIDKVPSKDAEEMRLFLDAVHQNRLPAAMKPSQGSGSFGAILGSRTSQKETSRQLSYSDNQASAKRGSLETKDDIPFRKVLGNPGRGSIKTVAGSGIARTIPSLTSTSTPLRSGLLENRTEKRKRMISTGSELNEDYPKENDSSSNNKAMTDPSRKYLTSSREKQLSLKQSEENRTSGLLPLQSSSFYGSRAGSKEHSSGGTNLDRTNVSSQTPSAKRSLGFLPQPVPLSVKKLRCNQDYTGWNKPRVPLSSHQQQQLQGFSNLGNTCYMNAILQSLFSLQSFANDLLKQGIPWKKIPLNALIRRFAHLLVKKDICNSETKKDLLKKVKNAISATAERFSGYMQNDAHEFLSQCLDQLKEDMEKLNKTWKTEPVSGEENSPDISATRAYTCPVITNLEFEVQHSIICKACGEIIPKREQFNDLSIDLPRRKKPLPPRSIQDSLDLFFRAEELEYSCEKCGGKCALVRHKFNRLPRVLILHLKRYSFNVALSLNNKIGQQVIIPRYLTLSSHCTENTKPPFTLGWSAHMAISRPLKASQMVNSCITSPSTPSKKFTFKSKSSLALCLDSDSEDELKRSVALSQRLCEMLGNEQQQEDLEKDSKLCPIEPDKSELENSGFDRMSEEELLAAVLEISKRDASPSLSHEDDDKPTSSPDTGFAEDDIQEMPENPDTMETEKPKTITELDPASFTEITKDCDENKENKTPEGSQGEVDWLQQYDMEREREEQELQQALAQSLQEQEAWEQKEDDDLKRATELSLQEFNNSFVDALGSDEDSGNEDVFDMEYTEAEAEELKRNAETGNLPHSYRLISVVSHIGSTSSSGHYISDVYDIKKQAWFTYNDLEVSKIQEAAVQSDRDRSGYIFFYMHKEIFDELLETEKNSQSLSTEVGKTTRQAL
Description: (§1) FIG. 2. […] (A) Western blot (WB) analysis of 293T transfected with Flag-tagged deubiquitinases (DUBs) or an empty vector (−). Where indicated, cells were treated with […] MG-132 for 4 hr. (B) Flag-tagged DUBs were immunoprecipitated (IP) from 293T cells cotransfected with ID2 and treated with […] MG-132 for 6 hr.

[2] = target: SENP3-Flag (human SENP3 with C-terminal Flag epitope) (human, UniProt Q9H4L4 1-574, limits assumed); test: as above
SENP3-Flag (human SENP3 with C-terminal Flag epitope), sequence (Q9H4L4 whole entry): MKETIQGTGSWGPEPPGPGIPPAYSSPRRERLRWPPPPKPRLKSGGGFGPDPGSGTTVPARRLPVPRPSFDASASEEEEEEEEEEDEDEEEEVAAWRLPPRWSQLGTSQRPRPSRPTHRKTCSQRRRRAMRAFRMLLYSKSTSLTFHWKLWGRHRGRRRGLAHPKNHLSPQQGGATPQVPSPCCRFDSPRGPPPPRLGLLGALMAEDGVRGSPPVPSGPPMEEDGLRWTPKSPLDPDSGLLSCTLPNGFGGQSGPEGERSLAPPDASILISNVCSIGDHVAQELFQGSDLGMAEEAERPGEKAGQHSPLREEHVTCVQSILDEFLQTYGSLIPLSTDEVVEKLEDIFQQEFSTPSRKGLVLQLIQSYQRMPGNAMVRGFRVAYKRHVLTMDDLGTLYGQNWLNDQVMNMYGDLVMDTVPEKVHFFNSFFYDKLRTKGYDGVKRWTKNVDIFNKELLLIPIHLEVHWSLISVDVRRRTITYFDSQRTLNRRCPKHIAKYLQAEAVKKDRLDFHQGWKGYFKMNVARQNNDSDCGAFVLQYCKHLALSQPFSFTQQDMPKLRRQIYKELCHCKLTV
Description: as §1

[3] = target: T2, OTUD5-Flag (human OTUD5 with C-terminal Flag epitope) (human, UniProt Q96G74 1-571, limits assumed); test: as above
T2 sequence (looked up): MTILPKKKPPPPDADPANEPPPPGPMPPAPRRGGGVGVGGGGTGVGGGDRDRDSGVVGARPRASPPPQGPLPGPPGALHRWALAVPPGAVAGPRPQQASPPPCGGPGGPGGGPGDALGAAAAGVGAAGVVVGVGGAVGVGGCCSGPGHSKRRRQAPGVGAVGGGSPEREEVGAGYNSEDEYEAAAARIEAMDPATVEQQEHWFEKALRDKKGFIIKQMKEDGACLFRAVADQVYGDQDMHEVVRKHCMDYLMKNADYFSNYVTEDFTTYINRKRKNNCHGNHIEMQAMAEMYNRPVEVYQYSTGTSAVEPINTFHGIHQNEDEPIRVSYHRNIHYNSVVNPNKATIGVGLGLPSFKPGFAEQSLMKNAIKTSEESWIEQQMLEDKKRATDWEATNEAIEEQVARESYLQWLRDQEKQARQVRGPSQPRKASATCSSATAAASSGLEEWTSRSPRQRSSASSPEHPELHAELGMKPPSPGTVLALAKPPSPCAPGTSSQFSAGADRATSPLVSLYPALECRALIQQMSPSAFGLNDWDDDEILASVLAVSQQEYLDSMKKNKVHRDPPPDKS
Description: as §1

[4] = target: T3, USP1-Flag (wild-type human USP1 with in-frame C-terminal Flag epitope) (human, UniProt O94782 1-785); test: Flag immunoprecipitation of DUBs from 293T cells cotransfected with ID2, MG-132 treated; blot for ID2 (FIG. 2B)
T3 construct: Synthesised human USP1 cDNA in pRK2001, expressed in 293T cells; also called USP1 wild-type; WT
T3 sequence: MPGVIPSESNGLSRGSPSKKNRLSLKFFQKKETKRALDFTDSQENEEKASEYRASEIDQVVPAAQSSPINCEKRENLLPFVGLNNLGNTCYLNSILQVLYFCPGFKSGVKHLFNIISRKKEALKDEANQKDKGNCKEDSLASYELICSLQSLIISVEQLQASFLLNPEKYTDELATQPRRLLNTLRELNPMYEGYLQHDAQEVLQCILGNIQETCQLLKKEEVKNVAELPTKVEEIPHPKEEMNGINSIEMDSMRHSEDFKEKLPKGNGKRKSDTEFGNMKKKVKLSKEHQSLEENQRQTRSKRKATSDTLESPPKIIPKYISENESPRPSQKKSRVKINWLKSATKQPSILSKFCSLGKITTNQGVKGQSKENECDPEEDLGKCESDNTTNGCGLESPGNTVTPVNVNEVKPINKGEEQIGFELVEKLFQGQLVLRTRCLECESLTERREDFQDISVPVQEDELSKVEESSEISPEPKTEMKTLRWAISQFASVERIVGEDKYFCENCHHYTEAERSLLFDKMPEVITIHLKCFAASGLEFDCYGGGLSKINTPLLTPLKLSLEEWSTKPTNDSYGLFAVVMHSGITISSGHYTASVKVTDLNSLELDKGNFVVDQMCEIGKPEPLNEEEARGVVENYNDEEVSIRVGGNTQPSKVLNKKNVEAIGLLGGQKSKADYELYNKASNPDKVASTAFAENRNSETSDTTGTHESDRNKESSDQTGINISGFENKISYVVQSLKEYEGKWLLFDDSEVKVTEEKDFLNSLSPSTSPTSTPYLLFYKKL
Description: as §1

binding result [1]: no binding
binding result [2]: no binding
binding result [3]: no binding
binding result [4]: binds
B1: ID2 (co-transfected / co-expressed in 293T cells) (other)
chain: MKAFSPVRSVRKNSLSDHSLGISRSKTPVDDPMSLLYNMNDCYSKLKELVPSIPQNKKVSKMEILQHVIDYILDLQIALDSHPTIVSLHHQRPGQNQASRTPLTTLNTDISILSLQASEFPSELMSNDSKALCG
notes: ID2 was amplified from Jurkat-derived cDNA; The methods describe only a C-terminal Flag version in pRK2001
